Measured values from publication PMC8407082, “An Integrative Approach to Determine 3D Protein Structures Using Sparse Paramagnetic NMR Data and Physical Modeling” (Frontiers in Molecular Biosciences, 2021).

Target: T1, calmodulin (UniProt P0DP23 1-149)
T1 construct: calmodulin, printed as 148 residues long; 13C/15N-labelled; The MELD model has 149 residues (with the extension C149); also called CaM; source: expressed in M9 minimal medium with 15NH4Cl and 13C6-glucose, purified as described previously (Liu and Vogel, 2012; Ishida et al., 2016)
Assay: solution NMR (backbone chemical shifts, PRE, RDC) with MELD modelling of the complex's structure; 600 MHz; 1.2-fold excess of peptide mixed with CaM; RDCs in 2 mM bis-Tris pH 7.0, 300 mM KCl, 16 mg/ml Pf1 bacteriophage
Details: both partners purified

binding result: binds
B1: smooth muscle myosin light chain kinase peptide (peptide)
peptide: PARRKWQKTGHAVRAIGRLSS
notes: proline left from the Asp-Pro acid cleavage site of the linker GGGGSSDP; Made unlabelled (LB) or 13C/15N-labelled (M9); The N-terminal proline is not seen in the NMR experiments and was left out of the MELD model; also called smMLCK peptide; smMLCKp; not shown: 6xHis, N-terminal, cleaved; KSI (D38A), N-terminal, cleaved
